Literature values, collected in PMC5726918.

Target: Asp3 (position 3, ---AADAA---)
Assay: potentiometry
Details: free peptide in solution

B1: Alanine-based pentapeptide AADAA (terminally blocked, uncharged) (synthetic) (peptide)
chain: AADAA
With B1 as the protein, how does the pKa read?
The pKa was 3.9.
